Assay results as given in PMC3402383.

Assays:
[1] = biological target: human complement protein C4b (human) (UniProt P0C0L4); test: ELISA; C3b or C4b (1 µg) immobilised in microtiter wells in PBS pH 7.2; up to 1 µM His-tagged Lig protein in 2% BSA-PBS pH 7.2, 37°C, 1 h; detected with anti-His antibody; apparent Kd = concentration of LigB that gives half-maximal binding
[2] = biological target: human complement protein C3b (human) (UniProt P01024); test: as above
[3] = biological target: human complement protein C3b (human) (UniProt P01024); settings: scale: % of complement activity in untreated serum
[4] = biological target: human complement protein C4b (human) (UniProt P0C0L4)

Sequence of human complement protein C3b (human) (P01024 23-667, chain 1 of 2): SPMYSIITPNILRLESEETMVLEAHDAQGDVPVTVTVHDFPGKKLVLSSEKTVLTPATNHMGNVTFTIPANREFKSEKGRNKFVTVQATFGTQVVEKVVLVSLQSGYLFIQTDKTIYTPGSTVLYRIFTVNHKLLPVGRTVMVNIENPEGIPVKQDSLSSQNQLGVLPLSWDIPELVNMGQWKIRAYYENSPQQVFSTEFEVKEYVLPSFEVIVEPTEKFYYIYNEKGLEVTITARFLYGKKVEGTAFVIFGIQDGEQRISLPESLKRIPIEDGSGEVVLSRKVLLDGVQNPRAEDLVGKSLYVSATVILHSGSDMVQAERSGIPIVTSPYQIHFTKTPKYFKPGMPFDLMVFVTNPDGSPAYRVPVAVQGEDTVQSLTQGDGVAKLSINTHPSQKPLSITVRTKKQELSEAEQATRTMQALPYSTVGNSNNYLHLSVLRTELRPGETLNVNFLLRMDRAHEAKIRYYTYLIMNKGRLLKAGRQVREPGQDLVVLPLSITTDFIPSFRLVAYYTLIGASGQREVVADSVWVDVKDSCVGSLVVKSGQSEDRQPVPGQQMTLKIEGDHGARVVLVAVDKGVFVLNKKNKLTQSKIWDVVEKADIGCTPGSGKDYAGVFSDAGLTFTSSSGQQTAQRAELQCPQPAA
Sequence of human complement protein C3b (human) (P01024 749-1663, chain 2 of 2): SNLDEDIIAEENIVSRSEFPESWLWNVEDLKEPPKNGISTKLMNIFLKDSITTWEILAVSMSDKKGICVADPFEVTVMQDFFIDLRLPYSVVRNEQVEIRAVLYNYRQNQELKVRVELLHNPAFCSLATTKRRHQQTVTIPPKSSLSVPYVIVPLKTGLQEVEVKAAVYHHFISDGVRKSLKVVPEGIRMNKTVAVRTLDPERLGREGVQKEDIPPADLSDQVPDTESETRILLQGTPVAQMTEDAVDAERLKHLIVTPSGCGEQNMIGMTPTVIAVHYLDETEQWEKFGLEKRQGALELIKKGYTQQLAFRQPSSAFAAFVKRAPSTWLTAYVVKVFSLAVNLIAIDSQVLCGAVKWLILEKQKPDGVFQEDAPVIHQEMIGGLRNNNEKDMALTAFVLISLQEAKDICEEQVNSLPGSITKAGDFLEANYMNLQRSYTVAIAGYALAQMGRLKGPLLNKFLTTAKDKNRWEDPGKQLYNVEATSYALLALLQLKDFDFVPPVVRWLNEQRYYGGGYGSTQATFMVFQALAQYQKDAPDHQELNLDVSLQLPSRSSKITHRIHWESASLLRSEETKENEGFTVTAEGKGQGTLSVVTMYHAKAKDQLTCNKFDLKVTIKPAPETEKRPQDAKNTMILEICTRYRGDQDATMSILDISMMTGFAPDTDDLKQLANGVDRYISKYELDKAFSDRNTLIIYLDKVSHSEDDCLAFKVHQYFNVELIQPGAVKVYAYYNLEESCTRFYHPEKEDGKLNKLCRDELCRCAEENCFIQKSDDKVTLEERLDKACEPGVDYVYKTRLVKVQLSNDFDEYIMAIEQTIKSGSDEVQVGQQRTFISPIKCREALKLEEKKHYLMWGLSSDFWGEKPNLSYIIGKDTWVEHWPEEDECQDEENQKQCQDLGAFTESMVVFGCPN
Sequence of human complement protein C4b (human) (P0C0L4 20-675, chain 1 of 3): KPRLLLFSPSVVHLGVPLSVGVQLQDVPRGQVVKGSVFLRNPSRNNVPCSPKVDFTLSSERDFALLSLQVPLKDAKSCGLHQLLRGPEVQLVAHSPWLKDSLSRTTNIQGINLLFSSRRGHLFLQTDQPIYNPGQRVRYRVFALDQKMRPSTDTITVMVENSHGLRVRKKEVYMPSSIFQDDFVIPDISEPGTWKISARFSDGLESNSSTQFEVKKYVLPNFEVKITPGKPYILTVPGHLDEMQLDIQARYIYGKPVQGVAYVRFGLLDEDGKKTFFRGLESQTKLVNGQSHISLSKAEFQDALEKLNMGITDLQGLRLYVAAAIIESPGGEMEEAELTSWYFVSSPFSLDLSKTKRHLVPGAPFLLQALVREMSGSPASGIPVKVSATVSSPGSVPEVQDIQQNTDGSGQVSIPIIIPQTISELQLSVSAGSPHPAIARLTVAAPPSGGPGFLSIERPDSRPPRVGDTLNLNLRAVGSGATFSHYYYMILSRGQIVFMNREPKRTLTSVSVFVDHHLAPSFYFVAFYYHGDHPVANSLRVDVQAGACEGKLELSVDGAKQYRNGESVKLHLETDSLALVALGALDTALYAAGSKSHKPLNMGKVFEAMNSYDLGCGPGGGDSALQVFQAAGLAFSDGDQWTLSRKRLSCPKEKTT
Sequence of human complement protein C4b (human) (P0C0L4 757-1446, chain 2 of 3): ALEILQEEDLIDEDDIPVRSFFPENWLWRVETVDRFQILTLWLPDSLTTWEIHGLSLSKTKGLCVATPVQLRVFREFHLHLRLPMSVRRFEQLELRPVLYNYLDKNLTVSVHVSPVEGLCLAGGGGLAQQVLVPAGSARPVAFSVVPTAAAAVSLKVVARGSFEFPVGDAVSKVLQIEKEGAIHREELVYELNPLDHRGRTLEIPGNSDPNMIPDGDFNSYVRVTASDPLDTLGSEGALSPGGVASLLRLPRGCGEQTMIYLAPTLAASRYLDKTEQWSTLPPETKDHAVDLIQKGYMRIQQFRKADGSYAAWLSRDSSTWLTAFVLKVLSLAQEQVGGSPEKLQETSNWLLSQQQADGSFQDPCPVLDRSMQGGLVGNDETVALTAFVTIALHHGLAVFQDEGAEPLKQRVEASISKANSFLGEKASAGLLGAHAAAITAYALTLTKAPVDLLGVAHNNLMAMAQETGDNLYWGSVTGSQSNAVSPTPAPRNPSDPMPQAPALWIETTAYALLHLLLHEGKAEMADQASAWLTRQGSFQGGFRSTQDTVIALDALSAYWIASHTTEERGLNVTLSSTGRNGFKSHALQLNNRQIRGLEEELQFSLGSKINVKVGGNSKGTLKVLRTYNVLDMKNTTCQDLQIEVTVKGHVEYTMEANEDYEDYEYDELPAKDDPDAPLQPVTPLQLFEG
Sequence of human complement protein C4b (human) (P0C0L4 1454-1744, chain 3 of 3): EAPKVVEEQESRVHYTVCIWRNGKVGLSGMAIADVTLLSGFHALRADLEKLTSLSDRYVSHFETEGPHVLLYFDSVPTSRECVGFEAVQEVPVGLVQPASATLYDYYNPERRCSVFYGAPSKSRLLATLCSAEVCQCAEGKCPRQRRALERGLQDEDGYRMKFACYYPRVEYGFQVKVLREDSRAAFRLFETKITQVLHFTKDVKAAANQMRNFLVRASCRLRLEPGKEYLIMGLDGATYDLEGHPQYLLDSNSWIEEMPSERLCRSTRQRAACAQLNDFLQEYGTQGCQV

LigB9-12 (domain or fragment)
Kd [1]: 57 nM | Kd [2]: 69 nM

LigB7′-12 (from UniProt C0J1Q6 1-1889) (domain or fragment)
Kd [1]: 69 nM | Kd [2]: 43 nM

LigB8-12 (domain or fragment)
complement-mediated hemolysis of rabbit erythrocytes (alternative pathway) after preincubation of normal human serum with the protein, as % of complement activity in untreated serum [3]: 38.9 | complement-mediated hemolysis of antibody-sensitized sheep erythrocytes (classical pathway) after preincubation of normal human serum with the protein, as % of untreated serum (% of untreated serum) [4]: 71.4

LigB9-11 (domain or fragment)
complement-mediated hemolysis of rabbit erythrocytes (alternative pathway) after preincubation of normal human serum with the protein, as % of complement activity in untreated serum [3]: 57.8 | Kd [1]: 67 nM | Kd [2]: 69 nM | complement-mediated hemolysis of antibody-sensitized sheep erythrocytes (classical pathway) after preincubation of normal human serum with the protein, as % of untreated serum (% of untreated serum) [4]: 64
